Data from publication PMC6269424.

Details: O-GlcNAc at T84

Row | Substance | expression_or_secretion
1 | PPARγ2: adipocyte-specific OGT knockout (FKO) | decreases
2 | PPARγ2: T84A | decreases
